In the series the target is 3Flag-Lef1 (zebrafish) (UniProt Q9W7C0). As to the kind of experiment: EMSA. Particulars: 100 mM Hepes pH 7.5, 100 mM NaCl, 50 mM KCl, 1 mM DTT, 1 mM EDTA, 5% glycerol, 30 min at 25 °C.
Chain of UniProt Q9W7C0 (Q9W7C0 entry or part of it): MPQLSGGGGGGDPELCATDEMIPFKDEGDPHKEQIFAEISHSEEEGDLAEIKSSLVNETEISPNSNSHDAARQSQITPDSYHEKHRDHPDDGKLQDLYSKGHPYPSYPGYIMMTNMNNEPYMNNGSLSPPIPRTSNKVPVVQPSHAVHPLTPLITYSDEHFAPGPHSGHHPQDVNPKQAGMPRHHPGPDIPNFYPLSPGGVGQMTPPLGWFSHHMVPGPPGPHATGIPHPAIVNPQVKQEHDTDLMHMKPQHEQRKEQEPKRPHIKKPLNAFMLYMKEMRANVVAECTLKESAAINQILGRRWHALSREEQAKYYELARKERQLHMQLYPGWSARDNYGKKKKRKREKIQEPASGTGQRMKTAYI

With “CACCACTGATAAAAACTATTAAAGATCAGTCTGGGAGTCACTACTTTACTACTTGGTTTCATCAAAGTATTAAAAAAAGTGATGCGCTGCCTTCTTTAAATGCGTTCAC (double strand) [eya2 promoter WT EMSA probe]”, the binding result was “binds”.

Values taken from article PMC12372851.
